Here are results for three substances from patent US20090305946A1.

For assay [1], the target named is full-length human Presenilin-1 (human) (UniProt P49768). In words: cell-based or functional assay.
Assay [2] has the same target. In words: ^35S-GTPγS incorporation in extracts of co-transfected ES cells, immunoprecipitation with anti-PS-1 loop MAb, scintillation counting. For orientation: GTPγS is a poorly hydrolysed GTP analogue; its binding reports G protein activation.
For assay [3], the target named is full-length human Presenilin-2 (human) (UniProt P49810). In words: ^35S-GTPγS incorporation in extracts of co-transfected ES cells, immunoprecipitation with anti-PS MAb, scintillation counting.
Assay [4] addresses full-length human Presenilin-1 (human) (UniProt P49768). As to the kind of experiment: [^35S]-GTPγS labelling of extracts of co-transfected ES cells, immunoprecipitation with anti-PS-1.
Assay [5] addresses endogenous rat PS proteins in rat hippocampal membranes. In words: cell-based or functional assay.

Sequence of human G-protein GαoA (P09471 2-354): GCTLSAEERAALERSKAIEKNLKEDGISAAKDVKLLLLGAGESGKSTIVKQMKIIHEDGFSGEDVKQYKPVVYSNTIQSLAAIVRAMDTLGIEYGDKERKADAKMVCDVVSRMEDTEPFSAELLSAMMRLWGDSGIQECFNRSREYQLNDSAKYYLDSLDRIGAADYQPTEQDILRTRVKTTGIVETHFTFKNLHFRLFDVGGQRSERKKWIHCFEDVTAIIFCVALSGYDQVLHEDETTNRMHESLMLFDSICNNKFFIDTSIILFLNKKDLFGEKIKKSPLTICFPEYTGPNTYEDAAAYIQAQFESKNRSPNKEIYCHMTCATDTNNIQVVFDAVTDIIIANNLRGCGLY
Sequence of soluble ectodomain of human β-APP, baculovirus-derived (P05067 18-701): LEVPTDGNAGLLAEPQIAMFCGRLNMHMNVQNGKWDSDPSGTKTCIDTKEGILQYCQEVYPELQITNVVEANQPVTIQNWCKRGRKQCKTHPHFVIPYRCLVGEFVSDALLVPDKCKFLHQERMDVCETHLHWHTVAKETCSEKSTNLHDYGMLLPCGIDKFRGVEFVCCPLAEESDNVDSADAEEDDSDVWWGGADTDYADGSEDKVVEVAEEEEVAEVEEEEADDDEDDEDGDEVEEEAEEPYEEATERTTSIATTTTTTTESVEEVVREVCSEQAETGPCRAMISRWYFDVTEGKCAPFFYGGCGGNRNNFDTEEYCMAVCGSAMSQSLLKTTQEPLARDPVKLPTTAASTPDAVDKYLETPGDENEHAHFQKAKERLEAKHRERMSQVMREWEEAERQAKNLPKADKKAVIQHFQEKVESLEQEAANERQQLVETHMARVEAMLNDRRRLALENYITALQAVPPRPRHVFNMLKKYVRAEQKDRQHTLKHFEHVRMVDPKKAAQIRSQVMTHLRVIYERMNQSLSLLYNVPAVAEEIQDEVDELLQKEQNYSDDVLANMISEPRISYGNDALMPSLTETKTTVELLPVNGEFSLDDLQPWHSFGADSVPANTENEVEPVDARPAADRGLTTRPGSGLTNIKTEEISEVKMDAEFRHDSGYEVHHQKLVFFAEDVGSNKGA

For “full-length human β-amyloid precursor protein (from UniProt P05067 18-770) (ligand)”, in assay [1], the ^35S-GTPγS incorporation (Gαo immunoprecipitated with K-20), high density co-culture (% increase over basal) stood at 200; the ^35S-GTPγS incorporation (Gαo immunoprecipitated with K-20), high density co-culture with PTx (% lower than basal) stood at 38; the ^35S-GTPγS incorporation (Gαo immunoprecipitated with K-20), low density co-culture (% increase over basal) came to 33.

In turn, “human G-protein GαoA (from UniProt P09471 2-354)” showed a ^35S-GTPγS incorporation, % of untransfected control in assay [2] of 700%. In assay [3], the % increase in ^35S-GTPγS binding over untransfected control stood at 700%. The substance also showed a fold increase in ^35S-incorporation immunoprecipitated with antibody to PS-1 in assay [4] of 8 fold.

In assay [5], “soluble ectodomain of human β-APP, baculovirus-derived (from UniProt P05067 18-701) (ligand)” returned a ^35S-GTPγS incorporation in solubilized rat hippocampal membranes of 600 % increase and a ^35S-GTPγS incorporation in solubilized rat hippocampal membranes (% greater than untreated) of 100. This substance also returned a ^35S-GTPγS incorporation (Gαo) in PS-1-only APP-/- fibroblasts in assay [1] of 500 % increase.
